Measured values taken from paper PMC3597591.

Molecular target: 14-3-3η (UniProt P68511)
Assay: GST pull-down from cell lysate
Conditions: reference: lysate with phosphatase inhibitors (PhosStop); sites S2845

binding against the reference: weaker
Substance: Bassoon Bsn28, 2715-3013 (from UniProt O88778) lysate treated with alkaline phosphatase
